# Laboratory results reported in the DeepSol protein solubility set.
# Experiment: soluble on expression in E. coli; label from the status in PepcDB or PDB records
row,Sequence,soluble on expression in E. coli
1,MDELMFFRGMAPDPTSYDRVFKFLIFGGKSVGKKTLLRSFCTEGDNESIWTSLTVDDEKVLIEATVSQKWEEGMSKEHDAIALVFSTTDVYSFEYTLELYNEIQKSTERIPLVFIENKIDIVEDSQMDKGLVEGEMRKKHKRLYRVSALKEFNVMHPFAYLIEKLTRQKKDLNANESVSENSLRL,not soluble
2,MLRQIVLMCAIHTACSFSIRDIINGKRGADAAIPAPCPTWHPFACPSGECVPIKYLCDGSPDCSDEYDENKSMCTAATRPPVEETQAFLKALMSAHGKDFLVKVFGPKAKAELSGMGGVDKVAVALSQTPTADLFASEMKLDDGETQHMLEVMEGILNGSTDELTSNEAADFRFFVQKLQETGFF,not soluble
3,MGSDKIHHHHHHMKPSRFNLVINESDGTLLFNTLSQALLWIDRKNTNKVLKTLEDPSSTELSKTEVEKLKRGMFLLDDNFDELEFLKFRFNTYRYSDRFLRYTIVLTHSCNFDCVYCYQKVLHISSGSYISEKVQSNFLLDVERKLEYQKPNLLSVTFYGGEPLLLEETVVNLSSKLKRLCEKYGVKYDSFIVTNGYLLTEKMVDDLQKAGIKALDITLDGTEVYHDRYRKARNGAPTFSSIFENIFRAVNKGLFVQIRVNVSRENIEDVKKLIDRIAEKKLRVEFNFQPIEIVEGNPTGFQDTALNTEEFAEIETKLWWYIREKIPEYPFEYFKKPRFARCDAMCKNSFVVDVDGRVYKCWGELGMENCSGFLKETGVEFTGSYLKWLTYDPLEDEECRRCLVLPFCMGGCAFNRVVYRTLKSSKVKKPHTCIPLRYNLNEFIKIVADYKRRSAVHGISQRSSGG,not soluble
4,MQTPSKKYVVDIWSDFVCPWCWIAKRRFENALNRSGMQDDVQVNVRAYRLAANQAPEPMIGALKRKLGNPASADSMMSTVSKYGRADGLDYRFDTMMFGDTADAHILVKAVEDTAVKKRLVEALYEQSTSHGRSLFDRSSLEAIAREVGVSDESIQLAWSSVELRNEMKDDESFAAQLGSGVPLFVFDSSFSVSGAQPDAVFLEALNKMVANSNPEDSSMMGQVCSIDGCKVLEHHHHHH,not soluble
5,MSLKETEIIKLFQEELKSKVLGDDAGFIKLGDRWLLLTNDMLVWRTDVPDFMTPEEAGAKVVTMNVSDIAAMGGKPIGFFFSLGLPRDINEKTLREIAKGIKRGTKRYNVEVLSGDTNESNELVIDGGAIGEAERILLRSGAKPGEVVCVTGDLGRPLTALLLWLKGEKIPREIAEKMKNPIARVREGLELANYASSAIDISDGLSKELWEISKASKVKIVIDPNSLPVHEKVKEIVKNPVEVALASGEEFELVFTISQEYLDILSFEFSIIGRVEKGEGVYTTTGEKVPMRGWEHFAGGNNDIGSEGHHHHHH,soluble
6,GPGSMDLNMRLLTRIFTYRRNHAEQGTIMSSKIAELSGRILSQQQYSQILEQRRWLQGLLKEVSLDMGAKEKEKSASPVVLPYGSIVSGTSFKDGDADYIVSFPIVSESTRQSGACVIDRERQEKFLSDIFSHIRKRNSDVELHPQRIFRARVPIVQYVRKSGQESARFDLSLSLDGLKNSLLLRQYMAGDPRLRLGVLGAKQWGREQQILNARRGWISPYALSIMYIHYMKETGRTALSFDEEAVSQRVNAIVSTAAESEGDISHVDELASILPLQEADMLLVEKDVFDFFAFYGTPGGFDFDASVVDIRSRERFSSKDQWCQLLDQLDERERWNLLGHEVILLRDPFEPHSLGRSVDFFRGEEIRERFRSAAVRKEPLSLFAFL,not soluble
7,GPGSMSTQLISGGEDGSHSQLMDLVLTNCSRPQSRASDNKQSTDGVVRLTSYVDLPNRDTLLPPIAEPKGGVPETSETLFPRRLGFDMIGVSSVSEEMLRDLYEVFDVHQSGGVERGVLREMMRSGFSHFGAPCSDRDLDRFFENVTPFRVRRRRTPKEGEVDVVPFNEFCVAFLSWLRR,soluble
8,MDHEIPVRIVDNQEYMKVVRSILEEGKEVPLVVTGNSMMPFLIDRRDQVLIKRIERPLKKGDIAFFQRENGQYIMHRIHFMRKDDRTGENQFYFIGDGQKNIEGPIKETRIFGVITGVLRKGKYLDEHTFTWRFFENIWRYVIPFRPLIIKIYSLFKR,not soluble
9,MGHHHHHHSHSKKPYIVTIACTKGGSAKSTNAANIGAFCADHGLRTLLIDTDTQPTLSSYYSLAKTAPGGIYEFLLQRDVEPSHIVSQTSIKNLDLIQSNDPSNNVSHMLRNAPDGSIRFSHLIKSINNYDVIVIDTRGTRDITVDMSVLAADILFCPILPQILSAKEFIRGTIGMYQDLQTFESFGFKLPPLKAIANGVDNTNDVKFVMQKLHTLFANTFDESKTLLDFSIPYHVAYREAVTYALPVYRHSAVEYPVMQQLCC,not soluble
10,MRYAEVLIPLALEGSFHYRLAEGLAEKAIVGMRCVVPFGAKRYYTGIIIGLSDKRPNLQISFKEVLFLPDDKPSVTASQLSLWQWLSAYYICTQGEVLRAALPAALLPESHTVIHYNTDFEADSRLSRDEEELLDILESAKGRTYTLDALQKAVGKRAIRAFTSLVERGAIRLEEEVKSRYKPKSEVFVRLAEPFRTEKTFASLLDSLHRAPKQSALLLHWAELITEHSLPYSSPMPQRLLAESDPHATVTLSALKKKGIFLSESVTHSVMYSAGGGEYRLWEQPQEEEKAIQSEESSTDSAVSASLPQKPLSLLYTHDFRRKEKQLLEWTEEVVRSGGQVLYLSPEANKRGGSDTLSTRMAERLGSCLLSYHAFESDAKRVEVWNRLATTEYPCVVLGVRSALFLPFRRLRLIIVDEEQEYLYKQQDPAPRFHTRQVAARLGRIHDCPVVLASATPSAEVLHQVRHKACELITWPDDRVRPRFDLEVIDMGKMRRQRQVGAGELLSFPLVSAIEETIRQKKMAVVLQNRRGFAPYIICSSCGEKLRCIHCDVSLTYHKHSCMLVCHYCGYSRPLPRICPSCKRASGVGEPSSLQPVGYGAERIEEELKRRFPTVSILRMDSDMAMSRTKMDEALARLEAKEVDILVGTQLIKGQVYNEHVGLVAVTQLDSILGFPDFRAYERAYQLLYQLMLRSGASRLYIQTNNPANSFPDLLREGDYKAFIGKQLEERQMLFFPPFSRLIRIEFRAGEESLVERIASDYAASLAAHLPEQSLSPVLVPPISRLRNAFIRELLLRLPLSSSVSATRNILDTIRTTLQTRTQEYKRVRILFDVDPL,not soluble
11,MGSDKIHHHHHHMKISLGPIHYYWSKENIEQFYRRAEHWPVDIVYLGETVCAKRRALRSADWLDIAARLTDAGKEVVLSTLALLEANSDLLQLERICANTHYLVEANDMSAVHLLAGRGPFVIGPHINCYNAETLSLLADLGGRRWIPPVELPATTIAMLQNTRPETMETEAFAYGYLPLSFSARCFTARADNVGKDACELRCIKDPEGRALFTQEQERLFTINGIQLQSGIPCNLLNETVAMSEMGMDIVRISPQLTATESVIRAFHAVLNGEISPPVEYGSPACNGYWYGKPGMQFSPVQGH,not soluble
12,MGSDKIHHHHHHMSMVSSGNYAEVEKVLTEYPYIAELADHLRDQKMKVIENLDSYVSLTIKNVERLGGHAYLAKDKEEARKIAGDLVGDNKTVVFSKTNVAYEIGLREYLESKHNEVWETDLGEYLIQISKGWPTHIVAPALGMTREDAAKAVKKIDPSINENSTIEDVVAAVRKFLMSKYVKADVGITGANAVAADSGAIALVENEGNIRIDTVMPQTHISITGIDKIVPTLRDALDEVMVQSAYAGLFPPTYINVTAGPSSTADIELRRVSPATGPKNFHLILLDDGRMDASKDEGLKEALLCIKCGRCYFSCPIYRVLGKEWVSTKSPYNGPTGVMWNYITNKDPWPASYCVHSGGCKEVCPMRINIPEVIKYIKYLGSKSL,not soluble
13,MILRYATNLKLAKELYQASKPKLQEDKGMIELFEHTFGLQKELVKYVGIAEATTAALYSASFINKNISRLASLSTIGILSVAAYKHFEAGQGKKGAQHALDLLGLATLSLLDTFSCNKKLEHHHHHH,not soluble
14,MAHHHHHHMMDMRQLDVSAVARSAMSCMEAKHMSANVKLYTLGFLTFLASSKSWQPYRMSHPDKVEEQALYEDSELASSFISTKYPAGWQQNASEVLNTKFPGLLGEVTAHLSLGGKDTISALPRRHDGR,not soluble
15,MSRFWSRWYSGLVSCTARVIMIDLNHLDTIANRLSDLLPPALYESRGELQTLFKDVLQAGLAKLDLVTREEFEIQRVILLSTREKLETLLHTLVLLEDRLTDQGKNLEHHHHHH,not soluble
16,GMKTLCTHSLPKEKMPYLLRSGEGERYLFGRQVATVMANGRSTGDLFEIVLLSGGKGDAFPLHVHKDTHEGILVLDGKLELTLDGERYLLISGDYANIPAGTPHSYRMQSHRTRLVSYTMKGNVAHLYSVIGNPYDHAEHPPYASEEVSNERFAEAAAVADIVFLDEAKPACSAKLAELTELPDGAVPYVLESGEGDRLLTGDQLHRIVAAQKNTDGQFIVVSSEGPKGDRIVDHYHEYHTETFYCLEGQMTMWTDGQEIQLNPGDFLHVPANTVHSYRLDSHYTKMVGVLVPGLFEPFFRTLGDPYEGHIFPCEPQALRFDRILQNIEALDLKVMKP,soluble
17,PTSLEKLPSADVKGQDLYKTQPPRSDAQGGKAYLKWICITCGHIYDEALGDEAEGFTPGTRFEDIPDDWCCPDCGATKEDYVLYEEK,soluble
18,MREVISIHVGQAGVQIGNACWELYCLEHGILPDGTSMEPDGNSGSLGTFFSDTGYGRHVPRSIFVDLEPTVVDEIRTGAYKKLFHPEQMLTGKEDAANNYARGHYTVGKEIIDTTLDRIRRLANNCEGLQGFFVFHSFGGGTGSGFTSMLMERLSAEYGKKSKLEFSIYPAPQISTSVVEPYNSILTTHTTLEHSDCSFMVDNEAIYDICRRNLRVSRPTYNNLNRIISQVVSSITASLRFDGALNVDLNEFQTNLVPYPRIHFPLVAYNPLISSAHHEFLSVDEITKSCFEASNQMVKCDPKHGKYMAVCLLYRGDVVPKDVSAAIKSIKTQRSVQFVDWCPTGFKVGLNYQPPTVIPGGDMAKVPRAVCMLSNTTAIAEAWQRLDYKFDLMYAKRAFVHWYVGEGMEEGEFSEAREDLAALEKDYEEVGADSDANDNGDDEY,not soluble
19,MTAYGFIIPVFNHPHYLDQLVETLSRYQLPMILVNDGSNEECSTKLRVLDQSYTQVHLVEHAYNQGKGQAVITGLHYADQLGLSHALQIDCDGQHQWADVEQFLQLSQQYPEKVIIGQPIFDASIPKKRLYGRYLTHVWVWINSLSFEIKDSMCGFRVYPLGPTLKVIKQAKFQPRMGFDSEILVRLKWENLAFINVPTAVIYPEHGILEHHHHHH,not soluble
20,MAYEEHFQQTSEAKYDCLLFDIDDTLYPLSSGLAMEVKKNIQEYMVQKLGIEEDKVQELCLSLYKIYGTTMAGLKAVGYDFDYDDFHRFVHGRLPYSTLKPDPILRNIILSLPIRKVVFTNADKAHAAKIIARLGLEGCFEKIISFETLNPITKTESPVDTKTREIFDIISYMANPDSSIELPKTSVVCKPSEGAFEQVFKMANINPKKTLFFDDSIRNIQTGKRVGLHTVWVGTSHREEGVDIALEHIHNIREALPQLWDAVDDKAKEIRTRQKVAIETIA,not soluble
21,MQSEKIAQLKAALQNFSASNSDLFDYALEEEKAKVRKRALLLLDQRARSVYELTNRLISADFDPNIVEYVVEDLVRANLLNDENFSREWVRQRRQRRGKSRQALTRELRDKGIKSEIIADVVGDIQPEDEQDIARELAYKKVRSLKKEPCDYPEYQKVLRRTVGVLARRGFSQSMALEIAREAIDARIDEIRR,not soluble
22,MKSSTMTSDYYKQTQIDQTLRLREVLKTLPPFAKDYFRAMEPKSSAKTRINYAYDIRVFFHFLLENNPIYKNYTMDQFRVQDLERIEPVDIEEYMEYLKVYKREDNEMITNGERGLKRKMSALRSFYSYYFKHQYIATNPTLLEHHHHHH,not soluble
23,MSLITLPKISLIGSNIAKEGLEFVFAGPLAACSDCRVKNVCFNLEQGHRYRVTKVREQVNPCIIFNGDKVNTVEVEELEDYVNVQESKRIQEGAIITLKSMNCDYITCPNIEKCNLYYFKPDSKVMVKSIGKEIKCPKGYKMKQVAITYKEGHHHHHH,not soluble
